Results: patent publication US20260224676A1 (published 2026)

Target: Tau preformed fibrils (PFF) (UniProt P10636 2-758)
Experiment: BLI

Kd: 1.32 nM
B1: Bepranemab (antibody, V domains shown)
VH: EVQLQESGPGLVKPSETLSLTCTVSGFSLTSNDIAWIRQPPGKGLEWMGTIWTDGSTNYNTAVQSRVTISVDTSKNQFSLKLSSVTAADTAVYYCARHRLYYGAFDYWGQGTMVTVSS
VL: DIVMTQTPLSLSVTPGQPASISCRSSQSLEYSDGYTYLEWYLQKPGQSPQLLIYEVSNRFSGVPDRFSGSGSGTDFTLKISRVEAEDVGVYYCFQATHNPYTFGQGTKLEIK
